The results in this text go back to patent US20120065134A1 (PHYLOGICA, published 2012).

Sequences and labels used below:
B3: CD40 ligand (CD40L or CD154) (ligand)
chain: MQKGDQNPQIAAHVISEASSKTTSVLQWAEKGYYTMSNNLVTLENGKQLTVKRQGLYYIYAQVTFCSNREASSQAPFIASLCLKSPGRFERILLRAANTHSSAKPCGQQSIHLGGVFELQPGASVFVNVTDPSQVSHGTGFTSFGLLKL
modifications: biotinylated ('biotinylated phospho-CD40L') in the proximity assay as described in paragraph 342
notes: Species never stated; also called soluble CD40L; CD40L target protein

Assay [1] deals with B3. The assay is described as follows: cell-based or functional assay.
Assay [2] concerns the target B3. The assay is described as follows: Alphascreen proximity assay, inhibition of CD40L/CD40-Fc interaction, unmodified peptide.
For assay [3], the target named is B3. The assay can be described thus: BLI, Octet Red (ForteBio), label-free. On the technique in general: In BLI a coated tip is dipped into the sample, and binding shifts an interference pattern.
In assay [4] the target is B3. The assay is described as follows: Alphascreen proximity assay; peptide titrated, axis Phylomer (M); blocked ligand is CD40 (CD40-Fc on acceptor beads). In general terms: Alpha assays give light when donor and acceptor beads are brought close together.
Assay [5] concerns the target B3. The assay is described as follows: Alphascreen proximity assay, inhibition of CD40L-CD40 interaction.
The target of assay [6] is B3. The assay is described as follows: cell-based or functional assay. The source holds these as a separate data set.
Assay [7] addresses B3. The assay can be described thus: Alphascreen proximity assay, 0.75nM CD40L; peptide titrated; blocked ligand is CD40 (CD40-Fc on acceptor beads).
The next assay concerns the target T1, CD40L M8_748.
T1 construct: Base peptide, natural open reading frame
The assay is described as follows: BLI, Octet Red (ForteBio), label-free.

Another assay deals with CD40 on primary B-cells. The assay can be described thus: cell-based or functional assay.

Where no end group is shown, it is not given here. PEG = not defined here

As for {PEG}-PPRYNLFFLFRFYSSFRRDYLYF (reading uncertain; also: PEG size and spacer not given here) [PEGylated CD40L M1_9s], the “EC50, inhibition of CD40L-induced CD86 expression on primary B-cells (FACS), PEGylated peptide” value (“EC50, inhibition … PEGylated peptide” below) in assay [1] stood at 180 nM.

As for {PEG}-DAAGREFFQIAGLFSFRHHWWQA (reading uncertain; also: PEG size and spacer not given here) [PEGylated CD40L M1_30s], in [1], the “EC50, inhibition … PEGylated peptide” value was above 2000 nM. For the molecule {PEG}-PRWVRNRFYSLFVPSGVQRGGIHLWFSNWVR (reading uncertain; also: PEG size and spacer not given here) [PEGylated CD40L M1_50s], the “EC50, inhibition … PEGylated peptide” value in assay [1] was 30 nM. Still for that read-out and setting: for {PEG}-LPFVPYRSHVLKYGWFFPVQWSIFAVLPFQYLHRSR (reading uncertain; also: PEG size and spacer not given here) [PEGylated CD40L M1_18s] the value was 90 nM. Regarding LCEMIAIYVFLWKKVFL [CD40L M7_217], the “EC50, inhibition of CD40L-induced CD86 expression on primary B-cells (FACS), unmodified peptide” value in assay [1] was determined as 2500 nM.

B1: CD40L M8_747 (peptide)
peptide: LAEHAVWSLKCFPDWEWYNINIFGTDDPNHFWVECDGHGKILFPGYPEGYYENHFLHSFELED
With B1, the response in [2] was half-maximal at 197 nM (EC50). Also, the Kd in assay [3] amounted to 8 nM.

B2: Cys_M1_6S (peptide)
peptide: CHPFSIKNVFSIWNFFSVY
modifications: a cysteine-containing linker (8-amino-3,6-dioxaoctanoyl type, FIG. 1b) may stand between Cys and the peptide; not stated for this molecule
notes: also called cysteine-containing derivative of M1-6S
As for B2, the “IC50 (read off the curve)” value in assay [4] and in assay [7] was around 300 nM in each case. Also, it took 0.265 nM to reach a half-maximal effect in [5] (EC50). The “EC50, inhibition of CD40L-induced CD86 expression on primary B-cells” value in [6] was 306 nM. In the case of {PEG}-HPFSIKNVFSIWNFFSVY (reading uncertain; also: PEG size and spacer not given here) [PEGylated CD40L M1_6s], the “EC50, inhibition … PEGylated peptide” value in assay [1] amounted to 1.5 nM. Still for that read-out and setting: next, {PEG}-HSFVLFGVNVPFNIIDFQMRVKS (reading uncertain; also: PEG size and spacer not given here) [PEGylated CD40L M1_42s]: 5000 nM. For the molecule B3, the Kd in the assay with CD40L M8_748 came to 5 nM. In the assay with CD40 on primary B-cells, the “EC50, induction of CD86 expression on primary B-cells by CD40L” value is around 9 nM.

A word on the EC50: it is the concentration needed to bring the measured effect to its halfway point. One may read the Kd as the free concentration of one partner at which half of the binding sites on the other are occupied at equilibrium, for simple one-to-one binding. A lower Kd goes with higher affinity.
